Results taken from patent US20180371086A1 (Gilead, published 2018).

Tests used:
[1] = target: HIV-1 Env of the lab adapted HIV-1 BaL strain (HIV-1); test: cell-based or functional assay
[2] = target: HIV-1 Env of subtype B isolate 93HT593 (HIV-1); test: cell-based or functional assay
[3] = target: HIV-1 Env of subtype B isolate 92US657 (HIV-1); test: cell-based or functional assay
[4] = target: HIV-1 Env of subtype B isolate 92US712 (HIV-1); test: cell-based or functional assay
[5] = target: HIV-1 Env of subtype B isolate 92US727 (HIV-1); test: cell-based or functional assay
[6] = target: HIV-1 Env of subtype B isolate MGRM-B-106 (HIV-1); test: cell-based or functional assay
[7] = target: HIV-1 Env of subtype B isolate MGRM-B-112 (HIV-1); test: cell-based or functional assay
[8] = target: HIV-1 Env of subtype B isolate MGRM-B-136 (HIV-1); test: cell-based or functional assay
[9] = target: HIV-1 Env of subtype B isolate MGRM-B-105 (HIV-1); test: cell-based or functional assay
[10] = target: HIV-1 Env of subtype B isolate MGRM-B-132 (HIV-1); test: cell-based or functional assay
[11] = target: HIV-1 Env of subtype B isolate MGRM-B-110 (HIV-1); test: cell-based or functional assay
[12] = target: HIV-1 Env of subtype B isolate MGRM-B-115 (HIV-1); test: cell-based or functional assay
[13] = target: HIV-1 Env of subtype B isolate MGRM-B-111 (HIV-1); test: cell-based or functional assay
[14] = target: HIV-1 Env of subtype B isolate MGRM-B-118 (HIV-1); test: cell-based or functional assay
[15] = target: HIV-1 Env of subtype B virus 15-124986 (HIV-1); test: cell-based or functional assay
[16] = target: HIV-1 Env of subtype B virus 15-124918 (HIV-1); test: cell-based or functional assay
[17] = target: HIV-1 Env of subtype B virus 15-124914 (HIV-1); test: cell-based or functional assay
[18] = target: HIV-1 Env of subtype B virus 15-124964 (HIV-1); test: cell-based or functional assay
[19] = target: HIV-1 Env of subtype B virus 15-124906 (HIV-1); test: cell-based or functional assay
[20] = target: HIV-1 Env of subtype B virus 15-124904 (HIV-1); test: cell-based or functional assay
[21] = target: HIV-1 Env of subtype B virus 15-102514 (HIV-1); test: cell-based or functional assay
[22] = target: HIV-1 Env of subtype B virus 15-101757 (HIV-1); test: cell-based or functional assay
[23] = target: HIV-1 Env of subtype B virus 15-124987 (HIV-1); test: cell-based or functional assay
[24] = target: HIV-1 Env of subtype B virus 15-124962 (HIV-1); test: cell-based or functional assay
[25] = target: HIV-1 Env of subtype B virus 15-124970 (HIV-1); test: cell-based or functional assay
[26] = target: HIV-1 Env of subtype B virus 15-124950 (HIV-1); test: cell-based or functional assay
[27] = target: HIV-1 Env of subtype B virus 15-124975 (HIV-1); test: cell-based or functional assay
[28] = target: HIV-1 Env of subtype B virus 15-124934 (HIV-1); test: cell-based or functional assay
[29] = target: HIV-1 Env of subtype B virus 15-101608 (HIV-1); test: cell-based or functional assay
[30] = target: HIV-1 Env of subtype B virus 15-124963 (HIV-1); test: cell-based or functional assay
[31] = target: T1, Human FcRn (human, UniProt P55899 24-297; P61769 21-119); test: ELISA, FcRn coated on plate, pH 6.0
T1 construct: also called neonatal Fc receptor
T1 sequence (P55899 24-297 limits assumed, chain 1 of 2): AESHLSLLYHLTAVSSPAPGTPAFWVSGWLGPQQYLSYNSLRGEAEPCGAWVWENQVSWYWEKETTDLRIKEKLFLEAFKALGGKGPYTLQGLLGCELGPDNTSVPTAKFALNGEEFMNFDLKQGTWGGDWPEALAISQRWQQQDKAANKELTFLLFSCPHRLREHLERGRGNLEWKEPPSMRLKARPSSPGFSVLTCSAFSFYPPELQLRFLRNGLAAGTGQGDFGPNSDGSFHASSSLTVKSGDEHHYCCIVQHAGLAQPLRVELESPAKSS
T1 sequence (P61769 21-119 limits assumed, chain 2 of 2): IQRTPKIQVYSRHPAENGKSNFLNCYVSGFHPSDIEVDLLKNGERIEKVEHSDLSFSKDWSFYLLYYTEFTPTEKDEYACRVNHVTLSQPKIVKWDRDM
Protocol: (§1) The binding of antibodies to FcRn of various antibody variants at different pHs was determined. A 96-well Maxisorp plate was coated with 100 ul of 5 μg/ml FcRn. The plate was incubated overnight at 4° C., and then blocked with 4% skim milk for 2 hr at room temperature after washing 3 times with 0.05% Tween 20 washing buffer. […] The plate was then washed 3 times and 100 μL of Fab-anti-human Fab-HRP or Goat anti-human IgG-HRP secondary antibody diluted in 4% skimmed milk was added. Plates were then incubated 50 min at room temperature, washed three times, and 100 μL fresh TMB substrate was added. Plates were developed for 3 minutes on bench with gentle shaking. Plate was quenched with 100 μL 1M HCl, shaken briefly, read at A450 on a spectramax m5 plate reader.

[32] = target: T1, Human FcRn; test: ELISA, FcRn coated on plate, pH 7.0
Protocol: as §1

[33] = target: T1, Human FcRn; test: ELISA, FcRn coated on plate; ratio of EC50 at pH 7.0 to pH 6.0
Protocol: as §1

[34] = target: T1, Human FcRn; test: ELISA, FcRn coated on plate; pH 7.0/6.0 ratio against that of PGT121
Protocol: as §1

B1: PGT121.60 hIgG1/hLambda (antibody, V domains shown)
VH: QMQLQESGPGLVKPSETLSLTCSVSGASISDSYWSWIRRSPGKGLEWIGYVHKSGDTNYNPSLKSRVHLSLDTSKNQVSLSLTGVTAADSGKYYCARTLHGRRIYGIVAFNEWFTYFYMDVWGTGTQVTVSS
VL: SDISVAPGETARISCGEKSLGSRAVQWYQHRAGQAPSLIIYNNQDRPSGIPERFSGSPDSRPGTTATLTITSVEAGDEADYYCHIWDSRVPTKWVFGGGTTLTVLG
Question: Which “Neutralization potency, IC50” value [1] does the source give for B1 here?
Answer: The value was 0.007 µg/mL.

Question: What about the “Neutralization potency, IC50” value [2] of the same binder?
Answer: The value was 0.141 µg/mL.

Question: What about the “Neutralization potency, IC50” value [3] of the same binder?
Answer: The value was 0.062 µg/mL.

Question: What about the “Neutralization potency, IC50” value [4] of the same binder?
Answer: Its value is 0.008 µg/mL.

Question: And the “Neutralization potency, IC50” value [5]?
Answer: The value was 0.007 µg/mL.

Question: What about the “Neutralization activity, IC50” value [6] of the same binder?
Answer: The value was 0.001 µg/mL.

Question: What about the “Neutralization activity, IC50” value [7] of the same binder?
Answer: The value was 0.0058 µg/mL.

Question: What about the “Neutralization activity, IC50” value [8] of the same binder?
Answer: The value was 0.0071 µg/mL.

Question: And the “Neutralization activity, IC50” value [9]?
Answer: The value was 0.0076 µg/mL.

Question: And the “Neutralization activity, IC50” value [10]?
Answer: Its value is 0.0077 µg/mL.

Question: And the “Neutralization activity, IC50” value [11]?
Answer: Its value is 0.0113 µg/mL.

Question: And the “Neutralization activity, IC50” value [12]?
Answer: Its value is 0.141 µg/mL.

Question: What about the “Neutralization activity, IC50” value [13] of the same binder?
Answer: The value was 0.955 µg/mL.

Question: What about the “Neutralization activity, IC50” value [14] of the same binder?
Answer: The value was 3.31 µg/mL.

Question: And the “Neutralization potency, IC50” value [15]?
Answer: Its value is 0.0015 µg/mL.

Question: And the “Neutralization potency, IC50” value [16]?
Answer: The value was 0.0018 µg/mL.

Question: What about the “Neutralization potency, IC50” value [17] of the same binder?
Answer: The value was 0.002 µg/mL.

Question: And the “Neutralization potency, IC50” value [18]?
Answer: The value was 0.0026 µg/mL.

Question: What about the “Neutralization potency, IC50” value [19] of the same binder?
Answer: Its value is 0.0103 µg/mL.

Question: And the “Neutralization potency, IC50” value [20]?
Answer: The value was 0.0121 µg/mL.

Question: And the “Neutralization potency, IC50” value [21]?
Answer: The value was 0.0128 µg/mL.

Question: What about the “Neutralization potency, IC50” value [22] of the same binder?
Answer: Its value is 0.0132 µg/mL.

Question: And the “Neutralization potency, IC50” value [23]?
Answer: Its value is 0.0163 µg/mL.

Question: And the “Neutralization potency, IC50” value [24]?
Answer: Its value is 0.0277 µg/mL.

Question: And the “Neutralization potency, IC50” value [25]?
Answer: The value was 0.0285 µg/mL.

Question: What about the “Neutralization potency, IC50” value [26] of the same binder?
Answer: The value was 0.0995 µg/mL.

Question: What about the “Neutralization potency, IC50” value [27] of the same binder?
Answer: Its value is 0.105 µg/mL.

Question: And the “Neutralization potency, IC50” value [28]?
Answer: Its value is 0.797 µg/mL.

Question: And the “Neutralization potency, IC50” value [29]?
Answer: The value was 1.84 µg/mL.

Question: What about the “Neutralization potency, IC50” value [30] of the same binder?
Answer: The value was 2.05 µg/mL.

B2: PGT121.56 (antibody, human IgG1, lambda)
heavy: QMQLQESGPGLVKPSETLSLTCSVSGASISDSYWSWIRRSPGKGLEWIGYVHKSGDTNYSPSLKSRVNLSLDTSKNQVSLSLVAATAADSGKYYCARTLHGRRIYGIVAFNEWFTYFYMDVWGNGTQVTVSSASTKGPSVFPLAPSSKSTSGGTAALGCLVKDYFPEPVTVSWNSGALTSGVHTFPAVLQSSGLYSLSSVVTVPSSSLGTQTYICNVNHKPSNTKVDKKVEPKSCDKTHTCPPCPAPELLAGPDVFLFPPKPKDTLMISRTPEVTCVVVDVSHEDPEVKFNWYVDGVEVHNAKTKPREEQYNSTYRVVSVLTVLHQDWLNGKEYKCKVSNKALPLPEEKTISKAKGQPREPQVYTLPPSREEMTKNQVSLTCLVKGFYPSDIAVEWESNGQPENNYKTTPPVLDSDGSFFLYSKLTVDKSRWQQGNVFSCSVLHEALHSHYTQKSLSLSPGK
light: not shown
Question: What does the source list for B2?
Answer: EC50 [31]: 0.47 nM; EC50 [32]: 102 nM; Ratio pH 7.0/6.0 [33]: 217; Fold vs PGT121 [34]: 7 fold
